Source: patent publication US20240010749A1

Legend:
[1] = biological target: human CEACAM5 expressed on cancer cell lines (MKN-45, NCI-H441, SNU-16, SK-CO-1, LS174T) (human) (UniProt P06731); assay: flow cytometry, NCI-H441 cells, 10 µg/mL antibody
[2] = biological target: human CEACAM5 expressed on cancer cell lines (MKN-45, NCI-H441, SNU-16, SK-CO-1, LS174T) (human) (UniProt P06731); assay: flow cytometry, MKN-45 cells, 10 µg/mL antibody

Chain of human CEACAM5 expressed on cancer cell lines (MKN-45, NCI-H441, SNU-16, SK-CO-1, LS174T) (human) (P06731 35-685): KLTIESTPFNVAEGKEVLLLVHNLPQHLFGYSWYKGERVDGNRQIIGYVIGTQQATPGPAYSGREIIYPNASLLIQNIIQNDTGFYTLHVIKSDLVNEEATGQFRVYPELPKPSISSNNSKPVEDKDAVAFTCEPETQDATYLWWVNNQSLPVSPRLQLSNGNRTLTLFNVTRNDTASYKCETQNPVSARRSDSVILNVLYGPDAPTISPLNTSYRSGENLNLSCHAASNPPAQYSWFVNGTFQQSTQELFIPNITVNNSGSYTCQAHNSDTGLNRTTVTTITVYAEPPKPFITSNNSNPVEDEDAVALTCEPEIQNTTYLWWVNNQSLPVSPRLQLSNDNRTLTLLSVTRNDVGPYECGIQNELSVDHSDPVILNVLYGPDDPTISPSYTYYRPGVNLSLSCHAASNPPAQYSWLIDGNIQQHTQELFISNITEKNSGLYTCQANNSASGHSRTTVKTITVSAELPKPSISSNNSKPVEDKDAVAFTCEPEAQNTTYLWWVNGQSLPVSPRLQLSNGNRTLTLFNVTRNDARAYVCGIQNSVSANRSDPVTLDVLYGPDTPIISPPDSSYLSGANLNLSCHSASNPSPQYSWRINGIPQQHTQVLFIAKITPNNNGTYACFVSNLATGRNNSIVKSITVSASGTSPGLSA

Substance: mouse monoclonal anti-CEACAM5 antibody Agilent Dako #M7072 clone II7
- quotient of MFI of antibody divided by MFI of secondary antibody only control [1]: 1.1
- quotient of MFI of antibody divided by MFI of secondary antibody only control [2]: 3.8
